{"source": "paper PMC3897428", "about": "(PLoS ONE, 2014)", "binders": {"B1": {"name": "ATN-658 monoclonal antibody (antibody, V domains shown)", "VH": "EVQLQQSGPELVKTGASVKISCKASGYSFTSYYMHWVKQSHGKSLEWIGEINPYNGGASYNQKIKGRATFTVDTSSRTAYMQFNSLTSEDSAVYYCARSIYGHSVLDYWGQGTSVSVSS", "VL": "not shown", "notes": "Fab part as the heavy chain of m4, followed by the rest of a mouse IgG1 heavy chain; as the light chain of m4 (kappa); Mouse IgG1 kappa; source: mouse hybridoma tissue culture supernatant, purified (protein-A Sepharose)"}, "B2": {"name": "iodinated ATN-658 (antibody, V domains shown)", "VH": "B1 VH", "VL": "not shown", "notes": "as the heavy chain of m1; as the light chain of m1; Mouse IgG1 kappa; source: mouse hybridoma tissue culture supernatant, purified (protein-A Sepharose), iodinated"}, "B3": {"name": "Biotin-ATN-658 (antibody, V domains shown)", "VH": "B1 VH", "VL": "not shown", "notes": "as the heavy chain of m1; as the light chain of m1; Mouse IgG1 kappa"}}, "details_in_all_cases": "one partner purified", "key": {"[1]": {"target": "T1, African green monkey uPAR on COS-1 cells (Chlorocebus aethiops (COS-1 cells), UniProt Q9GK79)", "T1 construct": "also called AGM uPAR; source: endogenous, on COS-1 cells", "T1 sequence (Q9GK79 whole entry, looked up)": "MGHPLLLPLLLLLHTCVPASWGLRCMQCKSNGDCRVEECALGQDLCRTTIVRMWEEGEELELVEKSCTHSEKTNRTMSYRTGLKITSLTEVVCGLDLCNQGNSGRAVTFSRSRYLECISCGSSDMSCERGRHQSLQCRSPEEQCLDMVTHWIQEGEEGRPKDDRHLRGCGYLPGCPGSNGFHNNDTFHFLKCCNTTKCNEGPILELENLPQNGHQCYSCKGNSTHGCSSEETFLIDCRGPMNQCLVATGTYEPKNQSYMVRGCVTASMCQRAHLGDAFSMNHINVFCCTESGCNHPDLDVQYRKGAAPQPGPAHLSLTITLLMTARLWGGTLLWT", "assay": "flow cytometry on cells; cells incubated with ATN-658 (10 µg/mL) 1 h at 4°C in FACS buffer, Alexa Fluor 488 secondary antibody"}, "[2]": {"target": "T2, chimpanzee uPAR in tissues (chimpanzee (endogenous in tissues), UniProt Q9GK80)", "T2 construct": "source: endogenous, chimpanzee tissues", "T2 sequence (Q9GK80 23-305)": "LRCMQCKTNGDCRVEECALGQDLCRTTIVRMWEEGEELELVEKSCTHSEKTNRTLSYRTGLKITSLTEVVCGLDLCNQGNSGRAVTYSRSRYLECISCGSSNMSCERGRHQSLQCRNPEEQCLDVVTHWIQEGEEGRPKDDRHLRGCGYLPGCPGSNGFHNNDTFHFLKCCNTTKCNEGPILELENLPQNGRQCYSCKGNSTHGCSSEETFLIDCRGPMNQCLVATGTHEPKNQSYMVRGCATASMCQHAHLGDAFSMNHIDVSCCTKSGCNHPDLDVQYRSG", "assay": "immunostaining of cells or tissue; immunohistochemistry of chimpanzee tissues with ATN-658; no figure or methods given"}, "[3]": {"target": "T3, human uPAR on the surface of cells (PC-3, HeLa) (Homo sapiens, UniProt Q03405)", "T3 construct": "source: endogenous, on PC-3 and HeLa cells", "T3 sequence (Q03405 23-305)": "as the sequence (Q9GK80 23-305) above, with M31L, N102D, N117S counted along it", "assay": "radioligand binding; iodinated ATN-658 on the surface of HeLa cells"}, "[4]": {"target": "T4, African green monkey (AGM) suPAR (Chlorocebus aethiops (COS-1 cells), UniProt Q9GK79)", "T4 construct": "soluble uPAR (suPAR) of African green monkey (Cercopithecus aethiops), cloned from COS-1 cells by PCR; numbers count on: the mature protein; Parent of the nine point mutants; also called monkey suPAR; source: Drosophila S2 cells, expressed as described for human suPAR", "T4 sequence (Q9GK79 whole entry, looked up)": "as the sequence (Q9GK79 whole entry, looked up) above", "assay": "ELISA; capture ELISA: suPAR clones from culture supernatant captured by anti-V5 antibody on the plate, biotin-ATN-658, streptavidin-HRP, OPD; saturation binding"}, "[5]": {"target": "T5, mouse uPAR on B16 melanoma cells (Mus musculus (B16 melanoma), UniProt P35456)", "T5 construct": "source: endogenous, on B16 cells", "T5 sequence (P35456 24-298)": "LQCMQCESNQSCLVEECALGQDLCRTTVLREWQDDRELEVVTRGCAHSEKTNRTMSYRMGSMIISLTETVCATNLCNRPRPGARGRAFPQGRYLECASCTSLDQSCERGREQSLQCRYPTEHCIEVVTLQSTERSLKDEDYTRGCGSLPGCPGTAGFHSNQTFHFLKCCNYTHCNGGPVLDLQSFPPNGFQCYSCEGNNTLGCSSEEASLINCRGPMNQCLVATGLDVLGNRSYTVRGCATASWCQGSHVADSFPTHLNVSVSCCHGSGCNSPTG", "assay": "whole cell saturation binding assay; adherent cells on gelatin coated 12-well plates, varying concentrations of biotin-labeled ATN-658 in HBSS/0.1% BSA, 1 h at room temperature, HRP-streptavidin and OPD"}, "[6]": {"target": "T1, African green monkey uPAR on COS-1 cells", "assay": "whole cell saturation binding assay; adherent cells on gelatin coated 12-well plates, varying concentrations of biotin-labeled ATN-658 in HBSS/0.1% BSA, 1 h at room temperature, HRP-streptavidin and OPD"}}}
{"binder": "B1", "values": [{"measurement": "binding result", "setting": "[1]", "result": "no binding (tested: 10 µg/mL)"}, {"measurement": "binding result", "setting": "[2]", "result": "binds"}]}
{"binder": "B2", "values": [{"measurement": "Kd", "setting": "[3]", "result": "~5", "unit": "nM"}]}
{"binder": "B3", "values": [{"measurement": "binding result", "setting": "[4]", "result": "no binding (tested: 1 µg/mL biotin-ATN-658 (methods))"}, {"measurement": "binding result", "setting": "[5]", "result": "no binding"}, {"measurement": "binding result", "setting": "[6]", "result": "no binding"}]}
